The text below walks through data of article PMC10703496.

The target of assay [1] is 6×His-tagged receptor-binding domain (RBD) of SARS-CoV-2 spike, Wuhan (SARS-CoV-2) (UniProt P0DTC2). In words: SPR.
Assay [2] has as its target spike protein of live Wuhan SARS-CoV-2 (SARS-CoV-2) (UniProt P0DTC2).
Assay [3] addresses dimeric ACE2-albumin fusion: truncated human ACE2 (residues 18–740) fused to engineered human albumi (human) (UniProt Q9BYF1). Description: SEC.
Assay [4] has as its target dimeric ACE2-albumin fusion: truncated human ACE2 (residues 18–740) fused to full-length wild-type human albumin (human) (UniProt Q9BYF1). In words: SEC. For orientation: In gel filtration, larger molecules generally elute earlier.
Assay [5] addresses soluble His-tagged human neonatal Fc receptor (human) (UniProt P55899).
Assay [6] has as its target ACE2(18–740)-WT: truncated dimeric human ACE2 (residues 18–740) fused to the N-terminal end of full- (human) (UniProt Q9BYF1). Description: SPR. In general terms: Surface plasmon resonance follows binding to a sensor surface in real time, without labels.
Assay [7] has the same target. Description: SPR; pH 5.5.

soluble His-tagged human neonatal Fc receptor (human FcRn-His), sequence (P55899 24-297): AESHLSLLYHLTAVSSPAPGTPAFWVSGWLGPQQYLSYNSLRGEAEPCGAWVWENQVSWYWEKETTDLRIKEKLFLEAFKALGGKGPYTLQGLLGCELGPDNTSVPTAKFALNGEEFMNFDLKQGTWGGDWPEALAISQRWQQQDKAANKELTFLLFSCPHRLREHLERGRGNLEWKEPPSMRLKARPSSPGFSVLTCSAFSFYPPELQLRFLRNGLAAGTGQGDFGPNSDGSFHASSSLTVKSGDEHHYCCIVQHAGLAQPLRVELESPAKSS
soluble His-tagged human neonatal Fc receptor (human FcRn-His), sequence (P61769 21-119): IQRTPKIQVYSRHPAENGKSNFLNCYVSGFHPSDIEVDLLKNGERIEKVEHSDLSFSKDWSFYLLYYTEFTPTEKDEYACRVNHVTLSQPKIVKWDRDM
soluble His-tagged human neonatal Fc receptor (human), sequence (P55899 24-297, chain 1 of 2): as the sequence (P55899 24-297) above
soluble His-tagged human neonatal Fc receptor (human), sequence (P61769 21-119, chain 2 of 2, further chain): as the sequence (P61769 21-119) above

As usually defined, the Kd is the constant that tells how readily two partners part at equilibrium. Usually koff stands for the first-order rate constant of dissociation. Low readings indicate a long-lived complex, high ones a short-lived complex. By kon is commonly meant a measure of how fast the partners come together. Read a low kon as slower complex formation. In assay [1], “ACE2(18–615)-QMP: monomeric ACE2 peptidase domain (residues 18–615) fused to the N-terminal end of QMP human albumin (from UniProt Q9BYF1-1;P02768)” came in with a Kd of 108 nM, a koff of 0.026 s⁻¹ and a kon of 240000 M⁻¹ s⁻¹.
The corresponding values for “ACE2(18–615)-WT: monomeric ACE2 peptidase domain (residues 18–615) fused to the N-terminal end of fu (from UniProt Q9BYF1-1;P02768)” are 327 nM, 0.0124 s⁻¹ and 38000 M⁻¹ s⁻¹.
The substance “ACE2(18–740)-WT: truncated dimeric human ACE2 (residues 18–740) fused to the N-terminal end of full- (from UniProt Q9BYF1-1;P02768)” had a Table S3: IC50 of live virus neutralization (Wuhan SARS-CoV-2 on Vero E6 cells) in assay [2] of 293 nM. Moreover, in assay [1], the Kd was 0.9 nM, the koff is 0.00015 s⁻¹ and the kon amounted to 166000 M⁻¹ s⁻¹.
Broadly, the stoichiometry N is a count of units in the complex or per binding partner. Take “dimeric ACE2-albumin fusion: truncated human ACE2 (residues 18–740) fused to engineered human albumi (from UniProt Q9BYF1 18-740)”: in assay [3], the stoichiometry N worked out at 2.
In assay [4], “dimeric ACE2-albumin fusion: truncated human ACE2 (residues 18–740) fused to full-length wild-type human albumin (from UniProt Q9BYF1;P02768)” returned a stoichiometry N of 2. The plasma half-life after IV injection in human FcRn Tg32 mice in assay [5] turned out to be 26.4 h.
In the case of “soluble His-tagged human neonatal Fc receptor (human FcRn-His) (from UniProt P55899 24-297; P61769 21-119)”, the kon in assay [6] was found to be 60000 M⁻¹ s⁻¹. In assay [7], this substance yielded a Kd of 102 nM and a koff of 0.0061 s⁻¹.
